Source: patent US20190359693A1

Tests used:
[1] = molecular target: recombinant HA of B/Brisbane/60/08 (Victoria) (influenza B virus); test: biolayer interferometry (Octet), steady-state fit, geometric mean, pH 7.4
[2] = molecular target: recombinant HA of H3N2 A/Wisconsin/67/05 (influenza A virus); test: as above
[3] = molecular target: recombinant HA of H7N9 A/Hangzhou/1/2013 (influenza A virus); test: as above
[4] = molecular target: recombinant HA of H1N1 A/Brisbane/59/07 (influenza A virus); test: as above
[5] = molecular target: recombinant HA of H7N3 A/NIBRG/60 (A/mallard/NL/12/00) (influenza A virus); test: as above
[6] = molecular target: recombinant HA of H3N2 A/HK/1/68-MA (influenza A virus); test: as above
[7] = molecular target: hemagglutinin (HA) of influenza A/Wisconsin/67/05 (H3N2) (influenza A virus); test: cell-based or functional assay
[8] = molecular target: hemagglutinin (HA) of influenza A/Christchurch/16/10 (H1N1) (influenza A virus); test: cell-based or functional assay
[9] = molecular target: hemagglutinin (HA) of influenza A/Eurasian Wigeon/MPH571/08 (H8N4) (influenza A virus); test: cell-based or functional assay
[10] = molecular target: hemagglutinin (HA) of influenza A/Vietnam/1194/04 (H5N1) (influenza A virus); test: cell-based or functional assay
[11] = molecular target: hemagglutinin (HA) of influenza A/Mississippi/03/01 274H (H1N1) (influenza A virus); test: cell-based or functional assay
[12] = molecular target: hemagglutinin (HA) of influenza A/Northern Shoveler/MPE2531/08 (H10N9) (influenza A virus); test: cell-based or functional assay
[13] = molecular target: hemagglutinin (HA) of influenza A/Eurasian Wigeon/MPD411/07 (H6N8) (influenza A virus); test: cell-based or functional assay
[14] = molecular target: hemagglutinin (HA) of influenza A/Northern Pintail/MPC2085/07 (H11N9) (influenza A virus); test: cell-based or functional assay
[15] = molecular target: hemagglutinin (HA) of influenza A/Taiwan/2/2013 (H6N1) (influenza A virus); test: cell-based or functional assay
[16] = molecular target: hemagglutinin (HA) of influenza A/Northern Shoveler/MPF518/08 (H7N7) (influenza A virus); test: cell-based or functional assay
[17] = molecular target: hemagglutinin (HA) of influenza A/Eurasian Wigeon/MPG1884/09 (H6N1) (influenza A virus); test: cell-based or functional assay
[18] = molecular target: hemagglutinin (HA) of influenza A/Env/MPJ1258/09 (H8N2) (influenza A virus); test: cell-based or functional assay
[19] = molecular target: hemagglutinin (HA) of influenza A/Eurasian Wigeon/MPF461/07 (H5N2) (influenza A virus); test: cell-based or functional assay
[20] = molecular target: hemagglutinin (HA) of influenza A/Mallard/Astrakhan/263/1982 (H14N5) (influenza A virus); test: cell-based or functional assay
[21] = molecular target: hemagglutinin (HA) of influenza A/California/07/09 (H1N1) (influenza A virus); test: cell-based or functional assay
[22] = molecular target: hemagglutinin (HA) of influenza B/Harbin/7/94 (Yamagata) (influenza B virus); test: cell-based or functional assay
[23] = molecular target: hemagglutinin (HA) of influenza A/Ck/HK/SSP176/09 (H9N2) (influenza A virus); test: cell-based or functional assay
[24] = molecular target: hemagglutinin (HA) of influenza A/WSN/33 (H1N1) (influenza A virus) (UniProt P03454); test: cell-based or functional assay
[25] = molecular target: hemagglutinin (HA) of influenza A/Fukui/45/04 (H3N2) (influenza A virus); test: cell-based or functional assay
[26] = molecular target: hemagglutinin (HA) of influenza A/NIBRG/60 (A/mallard/Netherlands/12/00) (H7N3) (influenza A virus); test: cell-based or functional assay
[27] = molecular target: hemagglutinin (HA) of influenza A/Northern Pintail/MPB1368/06 (H4N1) (influenza A virus); test: cell-based or functional assay
[28] = molecular target: hemagglutinin (HA) of influenza A/New Caledonia/20/99 (H1N1) (influenza A virus); test: cell-based or functional assay
[29] = molecular target: hemagglutinin (HA) of influenza B/Malaysia/2506/04 (Victoria) (influenza B virus); test: cell-based or functional assay
[30] = molecular target: hemagglutinin (HA) of influenza A/Env/HK/MPU3156/05 (H2N2) (influenza A virus); test: cell-based or functional assay
[31] = molecular target: hemagglutinin (HA) of influenza A/Indonesia/5/05 (H5N1) (influenza A virus); test: cell-based or functional assay
[32] = molecular target: hemagglutinin (HA) of influenza A/Env/HK/MPU3156/05 (H1N2) (influenza A virus); test: cell-based or functional assay
[33] = molecular target: hemagglutinin (HA) of influenza B/Lee/40 (Old) (influenza B virus) (UniProt P03460); test: cell-based or functional assay
[34] = molecular target: hemagglutinin (HA) of influenza B/Massachusetts/02/12 (Yamagata) (influenza B virus); test: cell-based or functional assay
[35] = molecular target: hemagglutinin (HA) of influenza A/Netherlands/219/2003 (H7N7) (influenza A virus); test: cell-based or functional assay
[36] = molecular target: hemagglutinin (HA) of influenza A/Anhui/1/13 (H7N9) (influenza A virus); test: cell-based or functional assay
[37] = molecular target: hemagglutinin (HA) of influenza B/Brisbane/60/08 (Victoria) (influenza B virus); test: cell-based or functional assay
[38] = molecular target: hemagglutinin (HA) of influenza A/Johannesburg/33/94 (H3N2) (influenza A virus); test: cell-based or functional assay
[39] = molecular target: hemagglutinin (HA) of influenza A/WF/HK/MPA892/06 (H4) (influenza A virus); test: cell-based or functional assay
[40] = molecular target: hemagglutinin (HA) of influenza A/Brisbane/59/07 (H1N1) (influenza A virus); test: cell-based or functional assay
[41] = molecular target: hemagglutinin (HA) of influenza A/HK/1174/99 (H3N2) (influenza A virus); test: cell-based or functional assay

MD3606 (Fc fusion) was tested, and the Kd [1] was 3.8 nM, the Kd [2] was 0.6 nM and the Kd [3] was 1.2 nM. The Kd [4] was 2.2 nM, the Kd [5] was 1.1 nM and the Kd [6] was 1.4 nM. For the same substance, the ADCC induction (EC50 grade, FcγRIIIa reporter bioassay) [7] was under 0.1 µg/mL, the Average neutralization titers [7] was 6.5 nM and the Average neutralization titers [8] was 1 nM. The Average neutralization titers [9] was 3.7 nM, the Average neutralization titers [10] was 5.7 nM and the Average neutralization titers [11] was 4.7 nM. For the same substance, the Average neutralization titers [12] was 20.7 nM, the Average neutralization titers [13] was 9.7 nM and the Average neutralization titers [14] was 7.2 nM. The Average neutralization titers [15] was 14.5 nM, the Average neutralization titers [16] was 18.4 nM and the Average neutralization titers [17] was 11.6 nM. It also gave an Average neutralization titers [18] of 3.9 nM, an Average neutralization titers [19] of 9.2 nM and an Average neutralization titers [20] of 12.9 nM. It also gave an Average neutralization titers [21] of 1.8 nM, an Average neutralization titers [22] of 1 nM and an Average neutralization titers [23] of 9 nM. It also gave an Average neutralization titers [24] of 2 nM, an Average neutralization titers [25] of 40.5 nM and an Average neutralization titers [26] of 12.9 nM. For the same substance, the Average neutralization titers [27] was 2.6 nM, the Average neutralization titers [28] was 2.6 nM and the Average neutralization titers [29] was 2.6 nM. For the same substance, the Average neutralization titers [30] was 9.3 nM, the Average neutralization titers [31] was 11.5 nM and the Average neutralization titers [32] was 2.6 nM. It also gave an Average neutralization titers [33] of 3.3 nM, an Average neutralization titers [34] of 1 nM and an Average neutralization titers [35] of 20.4 nM. It also gave an Average neutralization titers [36] of 38.2 nM, an ADCC induction (EC50 grade, FcγRIIIa reporter bioassay) [37] of under 0.1 µg/mL and an Average neutralization titers [37] of 1 nM. It also gave an Average neutralization titers [38] of 8.1 nM, an Average neutralization titers [39] of 3 nM and an Average neutralization titers [40] of 5.3 nM. The Average neutralization titers [41] was 23 nM.
